Results as given in a protein production outcome set (Wang et al. 2014).

assay: label from the status in PepcDB records

Sequence | protein production
MSLKISLENVGCASQIGKRKENEDRFDFAQLTDEVLYFAVYDGHGGPAAADFCHTHMEKCIMDLLPKEKNLETLLTLAFLEIDKAFSSHARLSADATLLTSGTTATVALLRDGIELVVASVGDSRAILCRKGKPMKLTIDHTPERKDEKERIKKCGGFVAWNSLGQPHVNGRLAMTRSIGDLDLKTSGVIAEPETKRIKLHHADDSFLVLTTDGINFMVNSQEICDFVNQCHDPNEAAHAVTEQAIQYGTEDNSTAVVVPFGAWGKEGHHHHHH | not failed
MSLKITKVEVIPISTPMKRAQLMRGATLARIDGVLLKLHSDEGLVGIADAGDTSSWYRGETQDSITSMICDFFAPKVLLGEDPTKIEKIVGRMDILTRDNNQAKATVDFALHDLVGKRFGVPVYQLLGGKTIERIPLGLVLGAGEPEAVAEEALAVLREGFHFVKLKAGGPLKADIAMVAEVRRAVGDDVDLFIDINGAWTYDQALTTIRALEKYNLSKIEQPLPAWDLDGMARLRGKVATPIYADESAQELHDLLAIINKGAADGLMIKTQKAGGLLKAQRWLTLARLANLPVICGCMVGSGLEASPAAHLLAANDWIAQFPQENAGPLHIHDCLNSRDIDNDIALNVPRFEGGYLYPNDGPGLGIELNEDLVRRLVTPGKAARVVTAEGHHHHHH | not failed
MSLKITRIDIHRTDLPVRGGVYRLSGGREYHSYDATIVSIETDTGLTGWGESTPFGSTYIAAHAGGTRAALELLAPAILGMDPRQHDRIWDRMRDTLKGHRDARAALDIACWDIAAQAAGLPLCDMTGGRVAGPVPVISSIGGDTPEAMRAKVARHRAQGFKGHSIKIGASEAEGGPALDAERITACLADRQPGEWYLADANNGLTVEHALRMLSLLPPGLDIVLEAPCASWAETKSLRARCALPLLLDELIQTETDLIAAIRDDLCDGVGLKVSKQGGITPMLRQRAIAAAAGMVMSVQDTVGSQISFAAILHLAQSTPRHLLRCALDTRAMTTAELAEIDAPLRDGGASAPSDPGLGLRVNRDALGTPVKTFGDPIEGHHHHHH | not failed
MSLKKVLLCVGNELRGDDGVAIALGRLVEEQMPEWSVFFGYDTPESEFGKLRELAPDVIVVADAMSGFKEGEIEFLDLSDERTYLYSTHNLPTPILISYLRGICSKTIFLGISVLLENVLHFSEGLSQGASDSAFVALGRIKELDGMLKEGHHHHHH | not failed
MSLKKVVIIGGGAAGMSAASRVKRLKPEWDVKVFEATEWVSHAPCGIPYVVEGLSTPDKLMYYPPEVFIKKRGIDLHLNAEVIEVDTGYVRVRENGGEKSYEWDYLVFANGASPQVPAIEGVNLKGVFTADLPPDALAIREYMEKYKVENVVIIGGGYIGIEMAEAFAAQGKNVTMIVRGERVLRRSFDKEVTDILEEKLKKHVNLRLQEITMKIEGEERVEKVVTDAGEYKAELVILATGIKPNIELAKQLGVRIGETGAIWTNEKMQTSVENVYAAGDVAETRHVITGRRVWVPLAPAGNKMGYVAGSNIAGKELHFPGVLGTAVTKFMDVEIGKTGLTEMEALKEGYDVRTAFIKASTRPHYYPGGREIWLKGVVDNETNRLLGVQVVGSDILPRIDTAAAMLMAGFTTKDAFFTDLAYAPPFAPVWDPLIVLARVLKEGHHHHHH | not failed
MSLKNSSRSAVDPFIVMDVMEAARRAEEAGRRIIHMEVGQPGTGAPRGAVEALAKSLETDALGYTVALGLPALRQRIARLYGEWYGVDLDPGRVVITPGSSGGFLLAFTALFDSGDRVGIGAPGYPSYRQILRALGLVPVDLPTAPENRLQPVPADFAGLDLAGLMVASPANPTGTMLDHAAMGALIEAAQAQGASFISDEIYHGIEYEAKAVTALELTDECYVINSFSKYFSMTGWRVGWMVVPEDQVRVVERIAQNMFICAPHASQVAALAALDCDAELQANLDVYKANRKLMLERLPKAGFTRIAPPDGAFYVYADVSDLTDDSRAFAAEILEKAGVAVTPGLDFDPERGAGTLRFSYARATADIEEGLDRLEAFMQARGEGHHHHHH | not failed
MSLKQKILIVEDSMTIRRMLIQAIAQQTGLEIDAFDTLEGARHCQGDEYVVALVDLTLPDAPSGEAVKVLLERGLPVVILTADISEDKREAWLEAGVLDYVMKDSRHSLQYAVGLVHRLYLNQQIEVLVVDDSRTSRHRTMAQLRKQLLQVHEASHAREALATLEQHPAIRLVLVDYYMPEIDGISLVRMLRERYSKQQLAIIGISVSDKRGLSARYLKQGANDFLNQPFEPEELQCRVSHNLEALEQFNSEGHHHHHH | not failed
MSLKQQFSTKAFQAANLEAYKAQMKEMEESFGALLRQLPSDTEVPGLLEDITRTGLGSGLEFEEIKLLPEVAQQFYIELPIQISVVGGYHDLATFVSGVSSLPRIVTLHDFEIKPVAPGSTSKLRMSILAKTYRYNDKGEGHHHHHH | not failed
MSLKTYKGYLIDLDGTMYNGTEKIEEACEFVRTLKDRGVPYLFVTNNSSRTPKQVADKLVSFDIPATEEQVFTTSMATAQHIAQQKKDASVYVIGEEGIRQAIEENGLTFGGENADFVVVGIDRSITYEKFAVGCLAIRNGARFISTNGDIAIPTERGLLPGNGSLTSVLTVSTGVQPVFIGKPESIIMEQAMRVLGTDVSETLMVGDNYATDIMAGINAGMDTLLVHTGVTKREHMTDDMEKPTHAIDSLTEWIPYIEGHHHHHH | not failed
MSLKYQLRFGGEGGQGVITAGEILAEAAIKEGRQAFKASTYTSQVRGGPTKVDIIIDDKEILFPYAVEGEVDFMLSTADKGYKGFRGGVKEGGIIVVEPNLVHPESEDYKKWQIFEIPIITIAKDEVGNVATQSVVALAIAAYMSKCIDLDVLKETMLHMVPAKTRDANAKAFDLGVKYATQAKPHEGHHHHHH | not failed
MSLLERLNQDMKLYMKNREKDKLTVVRMVKASLQNEAIKLKKDSLTEDEELTVLSRELKQRKDSLQEFSNANRLDLVDKVQKELDILEVYLPEQLSEEELRTIVNETIAEVGASSKADMGKVMGAIMPKVKGKADGSLINKLVSSQLS | not failed
MSLLLTNHIGYERLGPKKAIIQTEQPHLSSYTAQLICATSEQTVATFAVEEQGKVANWHQGYFYLIDFSSFTDSGDYFLQVEDSRSSSFTVGEHILLEQTLSDVIHYFKSQRCGGVFDQQDRQVPVLNANQTADVHGGWYDASGDVSKYLSHLSYANYLNPQQTPMVVWNILKGLSLLEGSEDIAAFTRTRLIEEALFGADFLVRMQNEKGFFYMTVFDKWSKDTAQREICAYETQLGHKFDDYQAGFRQGGGVAIAALAAASRLGVHGEYDQQKYRNAAENGYWHLKEHNTQYLNDGEENIIDEYCALLASVELFKATKETRYLEESRLWAQRLVARQMSDEQIQHFWSANQDGSRPYFHAAEAGLPVIALCEYLAIEDDSVQTESVKRIVNRACEFEIKISNKVTNPFGYPRQYVKGVNESKRDAFFVAHNNESGYWWQGENARLGSLATMAYLAQPHIASQEIQQQLSVFAQDALNWIVGLNPYDMCMLDGHGRNNPDYLPQYGFFNAKGGVCNGITGGFEDEEDIAFNPPAQKDDMLQNWRWGEQWIPHGAWYLLAIMSQAQHISQLATSKNIKEGHHHHHH | not failed
MSLNGKLDFSNRQARILYNKAIAKALFGLDIEYHPKGLVTTPISRYIFLKTFLRGGEVALEIGTGHTAMMALMAEKFFNCKVTATEVDEEFFEYARRNIERNNSNVRLVKSNGGIIKGVVEGTFDVIFSAPPYYDKPLGRVLTEREAIGGGKYGEEFSVKLLEEAFDHLNPGGKVALYLPDKEKLLNVIKERGIKLGYSVKDIKFKVGTRWRHSLIFFKGISEGHHHHHH | not failed
MSLNHHPIIYLVDHQKDARAALSKLLSPLDVTIQCFASAESFMRQQISDDAIGMIIEAHLEDKKDSGIELLETLVKRGFHLPTIVMASSSDIPTAVRAMRASAADFIEKPFIEHVLVHDVQQIINGAKEGHHHHHH | not failed
MSLQRVTNCIVVDHDQVLLLQKPRRGWWVAPGGKMEAGESILETVKREYWEETGITVKNPELKGIFSMVIFDEGKIVSEWMLFTFKATEHEGEMLKQSPEGKLEWKKKDEVLELPMAAGDKWIFKHVLHSDRLLYGTFHYTPDFELLSYRLDPEPQMKKKGIITITTDPNSSSVDKLAAALEHHHHHH | not failed
MSLQTKILIIDGDKDNCQKLKGFLEEKGISIDLAYNCEEAIGKIFSNKYDLIFLEIILSDGDGWTLCKKIRNVTTCPIVYMTYINEDQSILNALNSGGDDYLIKPLNLEILYAKVKAILRRMNSYVNNEGHHHHHH | not failed
MSLRAKLIWPILVFITAIFVASKGYTSYTAYQSSKHELVEQTRKLINNVSYSIKDALTTKNKRKAQTILADLIEQPNVSRVKLYDRANELFVLLEGSGESAPVPNQNERSKLDALGYALSAKFLYVLEPIIHEGHVIGSIRVTLSYIPIINAQHSFLKDAGVLLLILAAGGIIFYITIDRIILRPLLDLNGAIQDVTFGNASHVQIRHHSKDELGEVIHAFNRMMTKLRKREKQRQHSLATLEQKRAFSEEVIESIQYALVITDNLGTIIHSNAATQHIFQKTPEALENANIRDLIKTKMPNELSQILSRCLECDDIHLQNIDNEQQLSLTTRRLSNHGYLLFAIQDITEIEEAMNRQRVAGRVFEASQDGLIVLNHKGVITMVNPAVTKLVGLEIDQLVGQSFIQTIRWRKLQEMMPSIIESIENYGVWQGEVIEQNHLGLLVPMFARVNRIVKCENNGFYDLVIILTDLSNAKEMERLEYLAHHDALTGLANRSKFHLELEDLVQRSGYQRDEFAVLYLDLDGFKEINDTYGHDAGDEVLKRVADRLTSATRHSDLIARLSGDEFVMLVNPANQKVVTRIAEQLLESICAPIEYKGNELKVGVSIGVKLVGVNERDATRILKSADTAMYQAKKAGKGQAILMGCELQETV | failed
MSLRIDPLGGESLKNQEVKGKKSGKTSRVGESKKKEFFDILEDVKEDHFEKLLEEAVEEVIDSGNELVRSPTPSNLKRYKNAIKEFLKLIEKKIYKLAGSFDMNSGRARLHLVVEEVNEKLMDLTEKIMKNEWQTINLAARIEEINGLILNLYREGHHHHHH | not failed
MSLRQDILLNNNWNFRFSHQVQGDTRRVDLPHTWNAQDALAGKIDYKRGIGNYEKALYIRPEWKGKRLFLRFDGVNSIADVFINRKHIGEHRGGYGAFIFEITDLVKYGEKNSVLVRANNGEQLDIMPLVGDFNFYGGIYRDVHLLITDETCISPLDYASPGVYLVQEVVSPQEAKVCAKVNLSNRAADGTAELQVLVTDGTKVICKESRNVSLKQGADILEQLPLLIQKPRLWNGCEDPFMYQVSISLHKDGKQIDSVTQPLGLRYYHTDPDKGFFLNGKHLPLHGVCRHQDRAEVGNALRPQHHEEDVALMREMGVNAIRLAHYPQATYMYDLMDKHGIVTWAEIPFVGPGGYADKGFVDQASFRENGKQQLIELIRQHYNHPSICFWGLFNELKEVGDNPVEYVKELNALAKQEDPTRPTTSASNQDGNLNFITENIAWNRYDGWYGSTPKTLATFLDRTHKKHPELRIGISEYGAGASIYHQQDSLKQPSASGWWHPENWQTYYHMENWKIIAERPFVWGTFVWNMFDFGAAHRTEGDRPGINDKGLVTFDRKVRKDAFYFYKANWNKQEPMIYLAEKRCRLRYQPEQTFMAFTTAPEAELFVNGVSCGKQKADTYSTVVWKNVKLTSGENIIRVTTPGKKPLTDEVTVEYKEDREGHHHHHH | not failed
MSLSKTFLNELANQALTNPNDFTKGEKKQESFLLEYVSANPTGPLHIGHARGAVFGDTLTRLARHLGYKFNTEYYVNDAGNQIYLLGLSILLSVKESILHENVEYPEQYYKGEYIVDLAKEAFEKFGKEFFSEENIPSLADWAKDKMLVLIKQNLEQAKIKIDSYVSERSYYDALNATLESLKEHKGIYEQEGKIWLASSQKGDEKDRVIIREDGRGTYLAADIVYHKDKMSRGYGKCINIWGADHHGYIPRMKAAMEFLGFDSNNLEIILAQMVSLLKDGEPYKMSKRAGNFILMSDVVDEIGSDALRYIFLSKKCDTHLEFDISDLQKEDSSNPVYYINYAHARIHQVFAKAGKKIDDVMKADLQSLNQDGVNLLFEALNLKAVLNDAFEARALQKIPDYLKNLAANFHKFYNENKVVGSANENDLLKLFSLVALSIKTAFSLMGIEAKNKMEHEGHHHHHH | not failed
